Where “and” joins values, the source holds several entries; their conditions need not be identical. Equal entries are not always repeated.
What was measured:
[1] = target: T1, human FLT3 (Fms Related Receptor Tyrosine Kinase 3) expressed on cells (human, UniProt P36888 27-993); assay: flow cytometry on FLT3+ REH cells
T1 construct: whole, on cells; Same entry used for all cell lines; also called FLK2
T1 sequence (looked up): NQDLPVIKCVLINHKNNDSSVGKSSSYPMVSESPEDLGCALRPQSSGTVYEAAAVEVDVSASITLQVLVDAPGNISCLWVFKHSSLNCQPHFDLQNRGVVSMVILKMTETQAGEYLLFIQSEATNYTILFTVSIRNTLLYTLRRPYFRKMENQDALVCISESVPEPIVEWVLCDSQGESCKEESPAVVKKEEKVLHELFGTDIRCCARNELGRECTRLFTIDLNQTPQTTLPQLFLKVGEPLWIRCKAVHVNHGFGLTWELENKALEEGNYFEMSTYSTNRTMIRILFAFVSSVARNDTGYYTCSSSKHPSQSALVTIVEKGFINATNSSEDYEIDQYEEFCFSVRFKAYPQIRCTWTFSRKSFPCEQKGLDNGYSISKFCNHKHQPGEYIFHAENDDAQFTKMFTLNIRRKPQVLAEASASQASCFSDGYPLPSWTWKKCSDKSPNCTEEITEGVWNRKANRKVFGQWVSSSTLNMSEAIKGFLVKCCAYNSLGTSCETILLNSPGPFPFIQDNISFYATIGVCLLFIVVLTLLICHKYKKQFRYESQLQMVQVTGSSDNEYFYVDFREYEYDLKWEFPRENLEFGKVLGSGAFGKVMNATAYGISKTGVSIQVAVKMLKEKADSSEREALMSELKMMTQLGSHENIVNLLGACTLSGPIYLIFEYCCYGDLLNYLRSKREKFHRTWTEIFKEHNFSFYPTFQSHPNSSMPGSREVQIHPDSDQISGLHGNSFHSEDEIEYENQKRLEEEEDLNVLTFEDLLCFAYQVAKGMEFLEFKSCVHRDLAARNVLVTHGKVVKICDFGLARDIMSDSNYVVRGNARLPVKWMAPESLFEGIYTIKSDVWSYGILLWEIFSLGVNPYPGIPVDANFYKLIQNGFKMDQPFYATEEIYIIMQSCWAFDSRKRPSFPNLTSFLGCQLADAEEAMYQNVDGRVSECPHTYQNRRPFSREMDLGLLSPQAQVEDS
From the text: (§1) Cells were washed five times with flow buffer and stained with anti-human IgG lambda antibody conjugated to FITC (Southern Biotech 2070-02). Cells were stained with 7-AAD (7-AAD Viability Staining Solution, Biolegend 420404) followed by flow cytometry analysis.

[2] = target: T1, human FLT3 (Fms Related Receptor …); assay: flow cytometry on FLT3+ HL-60 cells
From the text: as §1, with “analysis. […] Binding of bispecific antibody to cells should directly correlate with FLT3 expression.” for “analysis.”

[3] = target: T2, human CD3 on the surface of T cells / Jurkat cells (human, UniProt P07766 23-207; P09693 23-182; P04234 22-171); assay: flow cytometry on CD3+ human T cells
T2 construct: whole, on cells
T2 sequence (P07766 23-207, chain 1 of 3): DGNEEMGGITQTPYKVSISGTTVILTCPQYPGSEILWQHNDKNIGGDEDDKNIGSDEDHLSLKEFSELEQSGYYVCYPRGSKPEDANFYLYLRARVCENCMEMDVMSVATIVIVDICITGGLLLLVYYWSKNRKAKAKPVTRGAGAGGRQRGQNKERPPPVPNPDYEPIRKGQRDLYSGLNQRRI
T2 sequence (P09693 23-182, chain 2 of 3): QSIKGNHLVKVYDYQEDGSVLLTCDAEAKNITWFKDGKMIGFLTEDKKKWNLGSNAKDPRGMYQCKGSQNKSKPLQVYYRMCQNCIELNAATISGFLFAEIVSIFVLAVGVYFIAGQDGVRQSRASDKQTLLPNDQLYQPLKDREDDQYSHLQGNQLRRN
T2 sequence (P04234 22-171, chain 3 of 3): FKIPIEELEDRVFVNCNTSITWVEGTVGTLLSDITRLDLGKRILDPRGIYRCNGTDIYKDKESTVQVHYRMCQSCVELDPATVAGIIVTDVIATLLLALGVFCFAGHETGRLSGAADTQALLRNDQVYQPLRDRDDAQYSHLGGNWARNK
From the text: as §1

[4] = target: T1, human FLT3 (Fms Related Receptor …); assay: flow cytometry on FLT3+ MOLM-13 cells
From the text: as §1, with “analysis. […] Binding of bispecific antibody to cells should directly correlate with FLT3 expression.” for “analysis.”

[5] = target: T1, human FLT3 (Fms Related Receptor …); assay: cell-based or functional assay
[6] = target: T2, human CD3 on the surface of T cells / …; assay: flow cytometry on CD3+ Jurkat cells
From the text: as §1

[7] = target: T3, Recombinant Human CD3 epsilon Fc Chimera Protein (R&D, no. 9850-CD-050) (human, UniProt P07766 23-126); assay: ELISA, plate coated with recombinant human CD3 epsilon Fc chimera
T3 construct: Bought reagent; Fc part of the bought chimera not given
T3 sequence (P07766 23-126, change not shown): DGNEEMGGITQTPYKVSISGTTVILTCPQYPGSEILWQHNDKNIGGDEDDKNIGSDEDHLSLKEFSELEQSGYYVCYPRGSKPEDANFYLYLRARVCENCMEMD
Description: The plate was washed with wash buffer (PBS (Caisson Labs, no. PBL06)+0.05% Tween20 (ThermoFisher, no. 28320)) The plate was blocked with blocking buffer (PBS (Caisson Labs, no. PBL06)+1% (w/v) BSA (Rockland, no. BSA-50)+0.05% Tween20 (ThermoFisher, no 28320)) for two hours at room temperature (RT). Plate was washed twice with wash buffer. […] Plate was washed 4× with wash buffer. Plate was incubated with 100 μL per well of 1:200 goat anti-human lambda-HRP secondary antibody (SouthernBiotech, no. 2070-05) for one hour at RT. Plate was washed 4× with wash buffer. Plate was incubated with 100 μL per well of TMB Substrate (ThermoFisher Cat #34029) for 20 minutes protected from light. Stop solution (2N H₂SO₄) was added to each well. Absorbance of wells was recorded at 450 nm on an Envision plate reader (PerkinElmer). […] Variable slope (four parameters) curve was fit to the data and EC50 was used to compare binding affinities.

[8] = target: T2, human CD3 on the surface of T cells / …; assay: flow cytometry on CD3+ primary T cells
From the text: as §1

[9] = target: T1, human FLT3 (Fms Related Receptor …); assay: flow cytometry on FLT3+ THP-1 cells
From the text: as §1, with “analysis. […] Binding of bispecific antibody to cells should directly correlate with FLT3 expression.” for “analysis.”

[10] = target: T1, human FLT3 (Fms Related Receptor …); assay: flow cytometry on FLT3+ NOMO-1 cells
From the text: as §1, with “analysis. […] Binding of bispecific antibody to cells should directly correlate with FLT3 expression.” for “analysis.”

[11] = target: T1, human FLT3 (Fms Related Receptor …); assay: flow cytometry on FLT3+ MV4-11 cells
From the text: as §1, with “analysis. […] Binding of bispecific antibody to cells should directly correlate with FLT3 expression.” for “analysis.”

[12] = target: T1, human FLT3 (Fms Related Receptor …); assay: flow cytometry on FLT3+ OCI-AML cells
From the text: as §1, with “analysis. […] Binding of bispecific antibody to cells should directly correlate with FLT3 expression.” for “analysis.”

EC50 [1]: 0.5 nM and 0.87 nM and 0.6 nM
EC50 [2]: 1.02 nM
EC50 [3]: 13.8 nM
EC50 [4]: 0.4 nM
EC50 [6]: 4.18 nM
EC50 [7]: 0.011 µg/mL and 0.06 nM
EC50 [8]: 14.2 nM
EC50 [9]: 5.74 nM
EC50 [10]: 6.75 nM
EC50 [11]: 6.33 nM
EC50 [12]: 1.86 nM
B1: CD3xFLT3 bispecific antibody 118BA #3 (bispecific antibody, human IgG1, lambda)
heavy: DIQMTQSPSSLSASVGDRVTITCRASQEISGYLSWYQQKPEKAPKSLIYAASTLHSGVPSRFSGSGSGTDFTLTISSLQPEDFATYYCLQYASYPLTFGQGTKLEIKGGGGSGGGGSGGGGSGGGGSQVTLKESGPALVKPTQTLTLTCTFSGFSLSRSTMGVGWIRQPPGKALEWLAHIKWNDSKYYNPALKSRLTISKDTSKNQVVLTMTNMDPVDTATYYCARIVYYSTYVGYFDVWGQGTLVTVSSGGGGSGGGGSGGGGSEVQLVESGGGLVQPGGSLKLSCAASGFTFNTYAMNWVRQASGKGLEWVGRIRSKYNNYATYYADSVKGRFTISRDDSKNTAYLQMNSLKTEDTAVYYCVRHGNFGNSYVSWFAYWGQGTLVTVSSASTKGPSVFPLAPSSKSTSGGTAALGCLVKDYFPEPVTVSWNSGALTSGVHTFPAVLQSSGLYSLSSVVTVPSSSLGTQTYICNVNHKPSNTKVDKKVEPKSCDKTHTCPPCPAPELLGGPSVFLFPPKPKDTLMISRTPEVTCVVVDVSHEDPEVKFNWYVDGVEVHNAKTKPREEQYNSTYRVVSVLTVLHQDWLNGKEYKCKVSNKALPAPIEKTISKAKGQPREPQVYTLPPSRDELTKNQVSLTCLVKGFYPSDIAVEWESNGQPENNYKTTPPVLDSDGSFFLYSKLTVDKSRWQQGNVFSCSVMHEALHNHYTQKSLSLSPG
light: QAVVTQEPSFSVSPGGTVTLTCGSSTGAVTTSNYANWVQQTPGQAFRGLIGGTNKRSSGVPDRFSGSLLGDKAALTITGAQADDESDYYCALWYSNLWVFGGGTKLTVLGGQPKAAPSVTLFPPSSEELQANKATLVCLISDFYPGAVTVAWKADSSPVKAGVETTTPSKQSNNKYAASSYLSLTPEQWKSHRSYSCQVTHEGSTVEKTVAPTECS
notes: also called #3 WT
EC50 of cytotoxicity against HL-60 [5]: 0.014 nM
EC50 of cytotoxicity against MOLM-13 [5]: 0.0157 nM
EC50 of cytotoxicity against MV4-11 [5]: 0.022 nM
EC50 of cytotoxicity against NOMO-1 [5]: 0.003 nM
EC50 of cytotoxicity against OCI-AML [5]: 0.002 nM
EC50 of cytotoxicity against REH [5]: 0.01 nM
EC50 of cytotoxicity against REH cells [5]: 0.01 nM and 0.006 nM
EC50 of cytotoxicity against THP-1 [5]: 0.00025 nM

— patent publication US20240368288A1 (HEMOGENYX PHARMACEUTICALS, published 2024)
